Assay results published in patent publication US20140193915, “COMPOSITIONS AND METHODS FOR CUSTOM SITE-SPECIFIC DNA RECOMBINASES” (Monsanto Technology, LLC, published 2014).

How the values were obtained:
[1] = molecular target: T1, pN-TALER IV-1-EE2 (GinL7C7-EE2-TALE13) (synthetic); test: cell_activity; E. coli; conditions: tags: 6-His
T1 chain: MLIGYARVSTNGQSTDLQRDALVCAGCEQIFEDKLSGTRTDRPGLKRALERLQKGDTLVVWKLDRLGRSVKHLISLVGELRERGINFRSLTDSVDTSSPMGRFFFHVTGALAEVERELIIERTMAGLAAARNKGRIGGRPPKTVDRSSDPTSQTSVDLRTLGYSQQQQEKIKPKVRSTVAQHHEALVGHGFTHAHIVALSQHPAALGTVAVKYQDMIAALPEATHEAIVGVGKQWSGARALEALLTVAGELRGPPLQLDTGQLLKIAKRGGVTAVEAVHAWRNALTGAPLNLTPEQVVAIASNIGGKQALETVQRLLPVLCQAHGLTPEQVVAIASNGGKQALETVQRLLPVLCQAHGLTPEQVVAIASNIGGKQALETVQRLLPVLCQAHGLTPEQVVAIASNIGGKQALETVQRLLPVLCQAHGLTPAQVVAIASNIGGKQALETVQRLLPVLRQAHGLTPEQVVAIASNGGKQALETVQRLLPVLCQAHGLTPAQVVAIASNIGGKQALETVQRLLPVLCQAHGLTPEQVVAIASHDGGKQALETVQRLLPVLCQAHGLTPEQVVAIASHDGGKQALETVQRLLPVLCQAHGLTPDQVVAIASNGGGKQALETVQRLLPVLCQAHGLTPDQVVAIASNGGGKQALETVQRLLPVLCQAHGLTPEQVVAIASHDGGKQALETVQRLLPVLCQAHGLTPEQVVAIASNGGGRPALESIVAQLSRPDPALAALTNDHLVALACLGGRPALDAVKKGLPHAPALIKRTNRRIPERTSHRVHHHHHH

[2] = molecular target: T2, sN-TALER IV-1 (GinH106Y-TALE13) (synthetic); test: cell_activity; E. coli; sequenced; conditions: tags: 6-His; chain copies: 2 per site, tetramer in synapsis (stated)
T2 chain: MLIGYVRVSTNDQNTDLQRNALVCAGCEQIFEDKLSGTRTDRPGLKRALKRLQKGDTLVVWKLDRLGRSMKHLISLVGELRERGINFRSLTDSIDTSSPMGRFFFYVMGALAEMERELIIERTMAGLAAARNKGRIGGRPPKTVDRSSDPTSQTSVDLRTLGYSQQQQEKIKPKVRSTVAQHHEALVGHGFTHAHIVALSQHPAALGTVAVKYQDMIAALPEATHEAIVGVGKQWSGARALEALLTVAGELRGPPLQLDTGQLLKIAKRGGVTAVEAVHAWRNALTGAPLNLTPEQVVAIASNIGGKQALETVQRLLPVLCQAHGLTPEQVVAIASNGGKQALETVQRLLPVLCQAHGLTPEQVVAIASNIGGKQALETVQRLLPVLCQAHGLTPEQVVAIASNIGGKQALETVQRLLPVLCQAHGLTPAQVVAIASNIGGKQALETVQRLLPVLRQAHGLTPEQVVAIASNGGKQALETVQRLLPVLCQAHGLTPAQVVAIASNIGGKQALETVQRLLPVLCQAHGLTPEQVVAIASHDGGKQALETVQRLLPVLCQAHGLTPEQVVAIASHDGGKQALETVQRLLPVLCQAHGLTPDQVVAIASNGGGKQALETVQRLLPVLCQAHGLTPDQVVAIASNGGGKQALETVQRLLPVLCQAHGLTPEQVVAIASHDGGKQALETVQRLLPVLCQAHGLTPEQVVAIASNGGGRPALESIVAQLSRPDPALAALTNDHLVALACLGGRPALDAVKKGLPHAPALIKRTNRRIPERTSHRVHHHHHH
Description: To test for recombination, E. coli DH5alpha cells were co-transformed with different combinations of TALER expression construct and TALER reporter construct pairs (Tables 6 and 7). The N-TALER expression and reporter constructs were in an approximate 1:1 mass ratio during the transformation. The co-transformed bacteria were plated on media with chloramphenicol, kanamycin, and X-gal then incubated at 37° C. for 18 to 36 hours. Control samples consisted of transformations using the reporter construct alone. Control transformants were similarly plated. The bacterial transformation protocol was either heat shock or electroporation per standard molecular biology techniques.
PCR was used to confirm that the predicted recombination had occurred in colonies which were white or sectored. PCR primers were designed so that a PCR product of approximately 877 bp (depending on the length of the spacers) would be produced from the non-recombined reporter constructs, and a PCR product of approximately 470 bp would be produced from reporter constructs that had undergone N-TALER-mediated recombination. Standard colony PCR was performed on white, blue, and sectored colonies from several plates representing different pairs of N-TALER expression construct and reporter construct co-transformation combinations.
To confirm that the recombination occurred as predicted, several of the PCR products were sequenced. Sequencing results for PCR products generated from white colonies from the sN-TALER IV-1 and Gin18TALE+1; sN-TALER IV-1 and Gin20TALE+0; or sN-TALER IV-1 and Gin20TALE+10 reporter constructs are shown in FIG. 7. No mismatches were detected relative to the predicted recombinase core sequence in any of the PCR products sequenced thereby confirming a base-perfect recombination with N-TALERs (the few single-nucleotide mismatches detected in the sN-TALER IV-1 and Gin20TALE+0 combination were rechecked and consequently dismissed as sequencing error).

B1: Gin18TALE+1 (dsDNA)
DNA 1: AGAAGGTATTTATATCCAAAACCATGGTTTACAATATAAATACCTTCT
DNA 2: AGAAGGTATTTATATTGTAAACCATGGTTTTGGATATAAATACCTTCT
**Q.** B1 was tested. Which activity [1] did it give?
**A.** Its activity is 1 score.

**Q.** What about the activity [2] of the same binder?
**A.** The activity was 1 score.

B2: Gin18TALE+0 (dsDNA)
DNA 1: AGAAGGTATTTATACCAAAACCATGGTTTACATATAAATACCTTCT
DNA 2: AGAAGGTATTTATATGTAAACCATGGTTTTGGTATAAATACCTTCT
**Q.** B2 was tested. Which activity [1] did it give?
**A.** Its activity is 1 score.

B3: Gin20TALE+0 (dsDNA)
DNA 1: AGAAGGTATTTATATCCAAAACCATGGTTTACAGTATAAATACCTTCT
DNA 2: AGAAGGTATTTATACTGTAAACCATGGTTTTGGATATAAATACCTTCT
**Q.** What does the source list for B3?
**A.** activity [1]: 1 score; activity [2]: 1 score
